Experimental data published in patent publication US20250228941, “CELLULAR THERAPY” (UNIVERSITÄt BASEL, published 2025).
Residue numbers refer to the chain shown, from its start.

Tests used:
Settings in all cases: tags: His-tag, Abcam ab198455, labeled with RED-Tris-NTA
[1] = target: T1, PHGDH (D-3-phosphoglycerate dehydrogenase) (Homo sapiens, UniProt O43175 SEQ:1-533); test: MST; high response amplitude; fitted to Kd model but no value given; 50 nM PHGDH, RNA 13-850 nM; 10 mM Tris HCl, 50 mM KCl, 0.5 mM EDTA, 0.1 mg/ml BSA, 10% glycerol
T1 sequence: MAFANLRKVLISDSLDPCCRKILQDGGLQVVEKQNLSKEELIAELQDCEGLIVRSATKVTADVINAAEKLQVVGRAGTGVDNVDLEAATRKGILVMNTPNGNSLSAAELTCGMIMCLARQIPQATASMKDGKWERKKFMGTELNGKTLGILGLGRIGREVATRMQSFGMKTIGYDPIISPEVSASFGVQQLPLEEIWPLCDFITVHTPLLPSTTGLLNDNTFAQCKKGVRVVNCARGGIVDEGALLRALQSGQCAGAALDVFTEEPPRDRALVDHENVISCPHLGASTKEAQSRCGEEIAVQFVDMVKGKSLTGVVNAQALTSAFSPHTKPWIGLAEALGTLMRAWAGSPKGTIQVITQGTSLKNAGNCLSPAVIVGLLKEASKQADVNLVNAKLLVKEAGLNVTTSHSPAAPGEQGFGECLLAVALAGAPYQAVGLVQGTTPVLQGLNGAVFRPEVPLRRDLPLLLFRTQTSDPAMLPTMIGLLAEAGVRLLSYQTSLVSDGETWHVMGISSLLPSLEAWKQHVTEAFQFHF
Experimental: (§1) Data were fitted to the Kd model.
(§2) Microscale thermophoresis experiments were performed using a NanoTemper® Monolith NT.115 (NanoTemper Tenchologies, Germany) with blue and red filters. His-tagged PHGDH protein was labeled using the Monolith His-Tag labeling Kit RED-Tris-NTA 2nd generation (SKU: MO-L018), according to manufacturer's protocol (Step B, Step C). Briefly, 90 μl of PHGDH protein (200 nM) was mixed with 90 μl of dye (100 nM) and incubated for 30 min at RT. Samples were centrifuged for 10 min at 4° C. at 15.000×g and transferred into a fresh tube. RNA was brought to a concentration of 1700 nM and a serial dilution of 1:2 over 16 steps in binding buffer (10 mM Tris HCl, 50 mM KCl, 0.5 mM EDTA, 0.1 mg/ml BSA, 10% (v/v) Rnase/Dnase free glycerol) was performed. Fluorescently labeled protein was added at a final concentration of 50 nM to each tube. 16 capillaries were loaded with IRF1 3′UTR RNA (highest concentration 850 nM) and PHGDH protein (50 nM). Samples were measured with the following settings: 20% LED/excitation and medium MST power. At the final dye concentration of 25 nM, the expected fluorescence intensity at 20% LED/excitation is around 300 counts on a Monolith NT.115.

[2] = target: T1, PHGDH (D-3-phosphoglycerate …); test: MST; mutation impeded binding; RNA up to 850 nM, same buffer
Experimental: as §1, §2

[3] = target: T1, PHGDH (D-3-phosphoglycerate …); test: MST; low response amplitude; no AU-rich elements; RNA up to 850 nM, same buffer
Experimental: as §2

B1: IRF1 3'UTR fragment 3 (Fg3) (ssRNA)
RNA: AGGAAUUGAACUUUUAAUUGCAUUUAAUAAACUGUAUGUAAAUAGUCA
binding result [1]: binds

B2: mutated fragment 3 (muFg3) (ssRNA)
RNA: B1 RNA with U12C, U13C
binding result [2]: no binding

B3: IRF1 3'UTR fragment 4 (Fg4) (ssRNA)
RNA: ACAUGUGCCAGCUAAGCACUUGAAAUGUGGCCAGUGCAAUA
binding result [3]: no binding
